Laboratory results published in patent US20250353906A1.

Biological target: human TNFα (human) (UniProt P01375)
Test: cell-based or functional assay

Chain of human TNFα (human) (P01375 77-233 limits assumed): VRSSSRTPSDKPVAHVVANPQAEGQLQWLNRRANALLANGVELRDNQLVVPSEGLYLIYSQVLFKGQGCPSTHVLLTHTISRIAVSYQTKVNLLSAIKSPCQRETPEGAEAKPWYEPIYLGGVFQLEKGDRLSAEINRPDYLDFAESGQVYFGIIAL

Substance: Etanercept (PRO078) (Fc fusion)
- IC50 (nM, replicate 2), inhibition of TNFα signaling in HEK-BLUE TNFα cells: 0.07 nM
